Laboratory results reported in paper PMC10019453, “Integrative structural analysis of the type III secretion system needle complex from Shigella flexneri” (Protein Science : A Publication of the Protein Society, 2023).

Biological target: T1, MxiD[SctC] (Shigella flexneri, UniProt Q04641 23-566)
T1 construct: the last 18 residues (S549-Y566) are not resolved; 16 subunits in the connector (N0, N1), 15 in the OM ring (N3, secretin, S domain); also called secretin; OM ring
T1 sequence: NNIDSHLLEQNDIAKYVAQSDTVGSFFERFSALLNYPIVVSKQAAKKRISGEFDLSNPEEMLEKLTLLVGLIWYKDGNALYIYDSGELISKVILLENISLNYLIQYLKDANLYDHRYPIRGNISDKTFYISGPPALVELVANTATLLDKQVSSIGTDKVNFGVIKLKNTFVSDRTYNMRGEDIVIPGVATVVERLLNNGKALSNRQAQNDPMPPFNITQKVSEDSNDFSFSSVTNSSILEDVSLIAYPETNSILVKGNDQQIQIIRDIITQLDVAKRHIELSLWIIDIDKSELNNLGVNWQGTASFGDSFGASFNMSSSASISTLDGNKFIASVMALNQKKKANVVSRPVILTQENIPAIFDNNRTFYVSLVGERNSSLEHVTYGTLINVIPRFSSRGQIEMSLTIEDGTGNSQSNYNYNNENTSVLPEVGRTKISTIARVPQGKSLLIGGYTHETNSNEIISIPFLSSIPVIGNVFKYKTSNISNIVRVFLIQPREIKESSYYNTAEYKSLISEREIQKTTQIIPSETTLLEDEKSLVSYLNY
Test: cross-linking; BS3 cross-linking mass spectrometry of the isolated needle complex; 0.2-0.3 mM BS3, 30 min, room temperature; 2% FDR at residue-pair level
Conditions: both partners purified

B1: MxiM[SctG] (natural protein)
chain: CALKSSSNSEKEWHIVPVSKDYFSIPNDLLWSFNTTNKSINVYSKCISGKAVYSFNAGKFMGNFNVKEVDGCFMDAQKIAIDKLFSMLKDGVVLKGNKINDTILIEKDGEVKLKLIRGI
modifications: lipidated N-terminus
notes: MxiM[SctG], pilotin of the Shigella flexneri T3SS; also called pilotin; pilot protein
**Q.** Does B1 bind?
**A.** Result: binds
